# Measurements taken from patent US7067277 (H LUNDBECK A S, dated 2006).
# Assays:
# Experiment in all cases: cell-based or functional assay
# [1] = target: T1, human dopamine D1 receptor (human, UniProt P21728 1-446)
# human 5HT7 receptor = human 5HT7 receptor (human, UniProt P34969 1-479)
# human 5HT6 receptor = human 5HT6 receptor (human, UniProt P50406 1-440)
# human GLP-1 receptor = human GLP-1 receptor (human, UniProt P43220 24-463)
# [2] = target: human dopamine D5 receptor (human, UniProt P21918 1-477)
# human 5HT4 receptor = human 5HT4 receptor (human, UniProt Q13639 1-388)
# [3] = target: human β2 adrenergic receptor (human, UniProt P07550 1-413)
# [4] = target: T1, human dopamine D1 receptor; remark: listed apart in the source
# [5] = target: T1, human dopamine D1 receptor; remark: listed apart in the source
# Chain of human 5HT7 receptor (P34969 whole entry): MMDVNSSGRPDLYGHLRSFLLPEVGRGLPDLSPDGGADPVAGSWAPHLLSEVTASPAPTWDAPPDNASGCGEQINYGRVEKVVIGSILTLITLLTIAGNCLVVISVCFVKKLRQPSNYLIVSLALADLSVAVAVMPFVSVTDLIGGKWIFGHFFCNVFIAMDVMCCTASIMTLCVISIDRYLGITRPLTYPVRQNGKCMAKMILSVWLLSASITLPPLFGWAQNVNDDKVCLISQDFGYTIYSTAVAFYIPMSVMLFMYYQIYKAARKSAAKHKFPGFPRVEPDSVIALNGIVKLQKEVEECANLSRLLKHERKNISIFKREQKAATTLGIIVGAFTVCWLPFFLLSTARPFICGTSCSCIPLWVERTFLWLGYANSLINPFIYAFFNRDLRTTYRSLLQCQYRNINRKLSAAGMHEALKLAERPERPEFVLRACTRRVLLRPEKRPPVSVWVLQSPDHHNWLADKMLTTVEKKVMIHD
# Chain of human 5HT4 receptor (Q13639 whole entry): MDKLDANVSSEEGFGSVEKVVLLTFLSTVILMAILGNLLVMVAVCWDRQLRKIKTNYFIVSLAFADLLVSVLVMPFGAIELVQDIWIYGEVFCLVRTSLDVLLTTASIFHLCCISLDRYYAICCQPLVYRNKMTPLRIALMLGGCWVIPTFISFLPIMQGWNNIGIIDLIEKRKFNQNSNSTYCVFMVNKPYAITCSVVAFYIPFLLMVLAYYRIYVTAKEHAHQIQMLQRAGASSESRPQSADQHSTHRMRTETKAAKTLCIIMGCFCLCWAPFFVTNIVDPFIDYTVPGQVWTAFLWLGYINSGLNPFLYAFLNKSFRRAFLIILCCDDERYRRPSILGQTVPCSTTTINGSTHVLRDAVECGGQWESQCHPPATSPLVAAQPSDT
# T1 sequence (P21728 whole entry): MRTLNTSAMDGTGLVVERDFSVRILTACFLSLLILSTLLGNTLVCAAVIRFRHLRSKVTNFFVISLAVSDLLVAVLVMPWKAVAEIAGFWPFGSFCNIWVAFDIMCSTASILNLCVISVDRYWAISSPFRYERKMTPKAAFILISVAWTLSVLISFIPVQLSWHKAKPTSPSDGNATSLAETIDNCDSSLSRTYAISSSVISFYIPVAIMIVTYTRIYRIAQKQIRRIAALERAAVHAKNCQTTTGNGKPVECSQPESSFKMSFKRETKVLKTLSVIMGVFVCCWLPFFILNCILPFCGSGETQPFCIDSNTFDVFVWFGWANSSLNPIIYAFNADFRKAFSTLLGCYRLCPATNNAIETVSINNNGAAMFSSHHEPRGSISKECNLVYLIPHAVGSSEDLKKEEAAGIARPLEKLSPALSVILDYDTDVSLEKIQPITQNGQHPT
# Chain of human 5HT6 receptor (P50406 whole entry): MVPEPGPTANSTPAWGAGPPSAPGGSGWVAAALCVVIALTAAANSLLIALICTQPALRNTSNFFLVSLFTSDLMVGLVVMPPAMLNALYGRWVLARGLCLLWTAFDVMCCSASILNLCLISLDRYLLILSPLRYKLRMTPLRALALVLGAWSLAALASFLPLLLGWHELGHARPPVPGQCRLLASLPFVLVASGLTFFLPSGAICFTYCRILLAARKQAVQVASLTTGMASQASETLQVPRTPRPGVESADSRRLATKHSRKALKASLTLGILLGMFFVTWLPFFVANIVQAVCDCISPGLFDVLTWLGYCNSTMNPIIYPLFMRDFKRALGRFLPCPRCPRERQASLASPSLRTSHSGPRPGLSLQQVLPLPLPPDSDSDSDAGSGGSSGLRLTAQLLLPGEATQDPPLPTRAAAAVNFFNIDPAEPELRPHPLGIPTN
# Chain of human dopamine D5 receptor (P21918 whole entry): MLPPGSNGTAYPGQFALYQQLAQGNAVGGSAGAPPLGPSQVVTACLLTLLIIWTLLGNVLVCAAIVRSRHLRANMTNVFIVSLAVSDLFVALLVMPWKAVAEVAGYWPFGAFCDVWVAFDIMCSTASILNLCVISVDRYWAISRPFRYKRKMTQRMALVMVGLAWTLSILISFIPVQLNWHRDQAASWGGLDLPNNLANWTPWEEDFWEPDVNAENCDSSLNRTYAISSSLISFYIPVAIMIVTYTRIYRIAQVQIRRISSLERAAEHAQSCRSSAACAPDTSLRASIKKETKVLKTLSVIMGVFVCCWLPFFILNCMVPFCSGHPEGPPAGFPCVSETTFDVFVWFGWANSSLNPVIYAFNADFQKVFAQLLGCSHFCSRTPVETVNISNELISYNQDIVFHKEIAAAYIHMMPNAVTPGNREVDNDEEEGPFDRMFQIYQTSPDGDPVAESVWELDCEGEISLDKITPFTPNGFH
Binder,"max Ca2+ signal, COS-7, FLIPR; 100 µM dopamine [1]","max Ca2+ signal, COS-7, FLIPR; agonist 5HT (human 5HT7 receptor)","max Ca2+ signal, COS-7, FLIPR; agonist 5HT (human 5HT6 receptor)","max Ca2+ signal, COS-7, FLIPR; agonist GLP-1 (human GLP-1 receptor)","max Ca2+ signal, COS-7, FLIPR; agonist DA [2]","max Ca2+ signal, COS-7, FLIPR; agonist 5HT (human 5HT4 receptor)","max Ca2+ signal, COS-7, FLIPR; agonist NE [3]","max Ca2+ signal, COS-7, FLIPR; agonist DA [4]","max Ca2+ signal, COS-7, FLIPR; agonist dopamine; fold over hGαq/s9 [5]"
D. melanogaster Gαq/z5 (other) MECCLSEEAKEQKRINQEIEKQLRRDKRDARRELKLLLLGTGESGKSTFIKQMRIIHGSGYSDEDKRGYIKLVFQNIFMAMQSMIKAMDMLKISYGQGEHSELADLVMSIDYETVTTFEDPYLNAIKTLWDDAGIQECYDRRREYQLTDSAKYYLKDLDRVAQPAYLPTEQDILRVRVPTTGIIEYPFDLEEIRFRMVDVGGQRSERRKWIHCFENVTSIIFLVALSEYDQILFESDNENRMEESKALFRTIITYPWFQNSSVILFLNKKDLLEEKIMYSHLVDYFPEYDGPQRDAITAREFILRMFVDLNPDSEKIIYSHFTCATDTENIRFVFAAVKDTILQSNLKYIGLC,2150 fluorescence units,–,–,–,–,–,–,–,–
C. elegans Gαq/s9 (other) MACCLSEEAREQKRINQEIEKQLQRDKRNARRELKLLLLGTGESGKSTFIKQMRIIHGQGYSEEDKRAHIRLVYQNVFMAIQSMIRAMDTLDIKFGNESEELQEKAAVVREVDFESVTSFEEPYVSYIKELWEDSGIQECYDRRREYQLTDSAKYYLSDLRRLAVPDYLPTEQDILRVRVPTTGIIEYPFDLEQIIFRMVDVGGQRSERRKWIHCFENVTSIMFLVALSEYDQVLVECDNENRMEESKALFRTIITYPWFTNSSVILFLNKKDLLEEKILYSHLADYFPEYDGPPRDPIAAREFILKMFVDLNPDADKIIYSHFTCATDTENIRFVFAAVKDTILQMHLRQYELL,–,387 fluorescence units,1640 fluorescence units,2460 fluorescence units,1870 fluorescence units,1700 fluorescence units,3110 fluorescence units,8690 fluorescence units,1.5 fold
C. elegans Gαq/s21 (other) MACCLSEEAREQKRINQEIEKQLQRDKRNARRELKLLLLGTGESGKSTFIKQMRIIHGQGYSEEDKRAHIRLVYQNVFMAIQSMIRAMDTLDIKFGNESEELQEKAAVVREVDFESVTSFEEPYVSYIKELWEDSGIQECYDRRREYQLTDSAKYYLSDLRRLAVPDYLPTEQDILRVRVPTTGIIEYPFDLEQIIFRMVDVGGQRSERRKWIHCFENVTSIMFLVALSEYDQVLVECDNENRMEESKALFRTIITYPWFTNSSVILFLNKKDLLEEKILYSHLADYFPEYDGPPRDPIAAREFILKMFVDLNPDADKIIYSHFTCATDTENIRRVFNDCRDIIQRMHLRQYELL,–,206 fluorescence units,1010 fluorescence units,3120 fluorescence units,3380 fluorescence units,1730 fluorescence units,3510 fluorescence units,9430 fluorescence units,–
Human Gαq/s5 (other) MTLESIMACCLSEEAKEARRINDEIERQLRRDKRDARRELKLLLLGTGESGKSTFIKQMRIIHGSGYSDEDKRGFTKLVYQNIFTAMQAMIRAMDTLKIPYKYEHNKAHAQLVREVDVEKVSAFENPYVDAIKSLWNDPGIQECYDRRREYQLSDSTKYYLNDLDRVADPSYLPTQQDVLRVRVPTTGIIEYPFDLQSVIFRMVDVGGQRSERRKWIHCFENVTSIMFLVALSEYDQVLVESDNENRMEESKALFRTIITYPWFQNSSVILFLNKKDLLEEKIMYSHLVDYFPEYDGPQRDAQAAREFILKMFVDLNPDSDKIIYSHFTCATDTENIRFVFAAVKDTILQLNLKQYELL,–,0 fluorescence units,98 fluorescence units,189 fluorescence units,0 fluorescence units,1710 fluorescence units,43 fluorescence units,0 fluorescence units,–
Human Gαq/z5 (identical to Accession number L76256) (other) MTLESIMACCLSEEAKEARRINDEIERQLRRDKRDARRELKLLLLGTGESGKSTFIKQMRIIHGSGYSDEDKRGFTKLVYQNIFTAMQAMIRAMDTLKIPYKYEHNKAHAQLVREVDVEKVSAFENPYVDAIKSLWNDPGIQECYDRRREYQLSDSTKYYLNDLDRVADPAYLPTQQDVLRVRVPTTGIIEYPFDLQSVIFRMVDVGGQRSERRKWIHCFENVTSIMFLVALSEYDQVLVESDNENRMEESKALFRTIITYPWFQNSSVILFLNKKDLLEEKIMYSHLVDYFPEYDGPQRDAQAAREFILKMFVDLNPDSDKIIYSHFTCATDTENIRFVFAAVKDTILQLNLKYIGLC,0 fluorescence units,–,–,–,–,–,–,–,–
Human Gαq/s9 (other) MTLESIMACCLSEEAKEARRINDEIERQLRRDKRDARRELKLLLLGTGESGKSTFIKQMRIIHGSGYSDEDKRGFTKLVYQNIFTAMQAMIRAMDTLKIPYKYEHNKAHAQLVREVDVEKVSAFENPYVDAIKSLWNDPGIQECYDRRREYQLSDSTKYYLNDLDRVADPSYLPTQQDVLRVRVPTTGIIEYPFDLQSVIFRMVDVGGQRSERRKWIHCFENVTSIMFLVALSEYDQVLVESDNENRMEESKALFRTIITYPWFQNSSVILFLNKKDLLEEKIMYSHLVDYFPEYDGPQRDAQAAREFILKMFVDLNPDSDKIIYSHFTCATDTENIRFVFAAVKDTILQMHLRQYELL,–,0 fluorescence units,999 fluorescence units,4200 fluorescence units,745 fluorescence units,2310 fluorescence units,1440 fluorescence units,5690 fluorescence units,–
